Target: T1, recombinant CD3E protein (UniProt P07766 23-126, limits assumed)
T1 construct: also called CD3ε; CD3 epsilon
Assay: SPR (BIAcore T200); fusion protein on exosomes (1x10^11) coated on CM5 chip, recombinant CD3E protein as analyte at 700-21.9 nM; fusion protein (1×10^11) coated on CM5 chip; recombinant CD3E as analyte

T1 sequence (P07766 23-126 limits assumed): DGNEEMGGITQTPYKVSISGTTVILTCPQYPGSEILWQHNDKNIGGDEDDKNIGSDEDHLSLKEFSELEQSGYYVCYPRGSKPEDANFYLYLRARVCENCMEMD

Kd: 2.1 nM
B1: fusion protein comprising anti-CD3 single domain antibody and exosomal protein CD63 (other)
chain: MAVEGGMKCVKFLLYVLLLAFCACAVGLIAVGVGAQLVLSQTIIQGATPGSLLPVVIIAVGVFLFLVAFVGCCGACKENYCLMITFAIFLSLIMLVEVAAAIAGYVFRDKVMSEFNNNFRQQMENYPKNNHTASAHVQLVESGGGSVQAGGSLRLSCTVSGVIFKNEYMGWFRQAPGKEREGVAAASPGGTITYYGDSVKGRFTISRDNAKNTVYLQMNRLKPEDTAMYYCALDPSTTSWSIIRHGPSLWRYSGRGTQVTVSSGSSILDRMQADFKCCGAANYTDWEKIPSMSKNRVPDSCCINVTVGCGINFNEKAIHKEGCVEKIGGWLRKNVLVVAAAALGIAFVEVLGIVFACCLVKSIRSGYEVM
notes: in the SPR assay the exosomes carrying the fusion protein (1x10^11) were coated on a CM5 chip; also called anti-CD3 single domain antibody-CD63 chimeric protein; CD3ε Nb-Exo

From patent publication US12221483 (CHINA MEDICAL UNIVERSITY HOSPITAL, dated 2025)
